The results in this text go back to publication PMC8795524.

Common to all, as to test: EMSA
For orientation: In EMSA bound probe runs differently from free probe, usually more slowly.

One series addresses T1, SAMD9 134-385 (Homo sapiens, UniProt Q5K651 134-385).
T1 sequence: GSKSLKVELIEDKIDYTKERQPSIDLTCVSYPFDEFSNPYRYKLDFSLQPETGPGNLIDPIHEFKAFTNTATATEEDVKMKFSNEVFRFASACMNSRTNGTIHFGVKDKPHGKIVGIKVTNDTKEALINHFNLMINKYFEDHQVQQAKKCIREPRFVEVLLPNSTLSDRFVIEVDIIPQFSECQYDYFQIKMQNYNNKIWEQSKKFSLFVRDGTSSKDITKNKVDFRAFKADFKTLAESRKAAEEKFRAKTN

The next series concerns the target T2, SAMD9 134-385 K198E (Homo sapiens, UniProt Q5K651 134-385, K198E).
T2 sequence: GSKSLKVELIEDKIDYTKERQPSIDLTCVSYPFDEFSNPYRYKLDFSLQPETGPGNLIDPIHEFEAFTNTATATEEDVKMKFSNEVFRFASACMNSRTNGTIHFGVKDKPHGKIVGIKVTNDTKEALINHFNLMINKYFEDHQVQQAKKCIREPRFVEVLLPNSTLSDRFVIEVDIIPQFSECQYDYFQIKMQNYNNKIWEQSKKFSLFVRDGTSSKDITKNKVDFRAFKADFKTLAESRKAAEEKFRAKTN

For another series, the target named is T3, SAMD9 134-385 K257E (Homo sapiens, UniProt Q5K651 134-385, K257E).
T3 sequence: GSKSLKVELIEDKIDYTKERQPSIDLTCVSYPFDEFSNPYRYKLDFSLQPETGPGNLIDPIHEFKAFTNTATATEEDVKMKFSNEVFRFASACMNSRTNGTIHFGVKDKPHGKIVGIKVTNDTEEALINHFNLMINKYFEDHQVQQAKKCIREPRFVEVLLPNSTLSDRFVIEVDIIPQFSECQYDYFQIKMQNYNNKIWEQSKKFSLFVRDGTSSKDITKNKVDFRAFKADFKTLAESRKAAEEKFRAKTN

The target in a further series is T4, SAMD9 134-385 R221E (Homo sapiens, UniProt Q5K651 134-385, R221E).
T4 sequence: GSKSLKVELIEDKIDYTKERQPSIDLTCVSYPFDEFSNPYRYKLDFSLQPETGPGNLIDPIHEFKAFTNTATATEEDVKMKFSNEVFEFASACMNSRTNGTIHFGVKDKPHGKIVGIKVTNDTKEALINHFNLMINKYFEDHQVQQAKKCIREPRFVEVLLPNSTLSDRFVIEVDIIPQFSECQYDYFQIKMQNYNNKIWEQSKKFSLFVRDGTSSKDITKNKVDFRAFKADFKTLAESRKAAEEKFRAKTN

B1: 11-nt dsDNA (dsDNA)
DNA 1: GAGAAAGAGAG
DNA 2: CTCTCTTTCTC
On to B1, for which the binding result with SAMD9 134-385 is “no binding”.

B2: 5' 6-FAM 22-nt dsDNA (dsDNA)
DNA 1: GCAAATTAATGATTTATTCAAG
DNA 2: CTTGAATAAATCATTAATTTGC
B2: the binding result in the series with SAMD9 134-385 K198E was “no binding”; in the series with SAMD9 134-385 K257E, “binds”; with SAMD9 134-385 R221E it was “no binding”.
